The values below come from patent US20020081570A1, “System to detect protein-protein interactions” (priority 2000, published 2002).

In this assay the target is T1, syntaxin 1A (Homo sapiens, UniProt Q16623).
T1 construct: expressed in transfected cells; host or cells: yeast (two-hybrid; cotransformations and yeast matings)
Put plainly: yeast two-hybrid screen (cotransformations and yeast matings). It is filed as binding. Particulars: yeast two hybrid system. From the text: The present inventors completed a yeast two-hybrid screen using Syt 1, syntaxin 1A and synaptobrevin 2 (Vamp 2). Recombinant and native Syt-1 and syntaxin 1A were shown previously to interact in a calcium dependent manner. […] Screens performed using two different approaches—cotransformations and yeast matings—gave identical findings.

T1 sequence (Q16623 whole entry, species assumed): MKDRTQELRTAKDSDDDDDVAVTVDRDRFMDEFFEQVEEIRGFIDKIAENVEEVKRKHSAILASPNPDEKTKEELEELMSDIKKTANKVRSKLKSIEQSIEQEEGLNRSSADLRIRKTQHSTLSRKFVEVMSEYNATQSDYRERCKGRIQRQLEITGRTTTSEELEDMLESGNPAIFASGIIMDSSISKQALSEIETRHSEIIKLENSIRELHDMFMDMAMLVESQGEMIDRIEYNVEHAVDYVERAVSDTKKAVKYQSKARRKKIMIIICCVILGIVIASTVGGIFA

On to “Syt-1: synaptotagmin I protein used in yeast two-hybrid screen”, for which the “direct interaction with syntaxin 1A” value is listed as “did not”.
Regarding “synaptobrevin: synaptobrevin 2 (Vamp 2) protein used in yeast two-hybrid screen”, the “direct interaction with syntaxin 1A” value is “interact directly”.
